Key:
Assay in all cases: cell_activity
[1] = tested on: ZFN-224 R (CCR5) (Artificial Sequence); details: as ZFN pair; T7E1, sorted RFP+GFP+ HEK293; unsorted 12%
[2] = tested on: CMAH-ZFN L (Artificial Sequence); details: as ZFN pair; T7E1, hygromycin-selected porcine ear cells; untreated 3.1%
[3] = tested on: Z891 L (CCR5 ZFN) (Artificial Sequence); details: as ZFN pair; T7E1, sorted RFP+GFP+ HEK293; unsorted 0.8%
[4] = tested on: Thumpd3 ZFN L (Artificial Sequence); details: as ZFN pair; T7E1, sorted RFP+GFP+ mouse iPS-derived fibroblasts; unsorted 0.5%
[5] = tested on: CMAH-ZFN R (Artificial Sequence); details: as ZFN pair; T7E1, hygromycin-selected porcine ear cells; untreated 3.1%
[6] = tested on: ZFN-224 L (CCR5) (Artificial Sequence); details: as ZFN pair; T7E1, sorted RFP+GFP+ HEK293; unsorted 12%
[7] = tested on: Thumpd3 ZFN R (Artificial Sequence); details: as ZFN pair; T7E1, sorted RFP+GFP+ mouse iPS-derived fibroblasts; unsorted 0.5%
[8] = tested on: Z891 R (CCR5 ZFN) (Artificial Sequence); details: as ZFN pair; T7E1, sorted RFP+GFP+ HEK293; unsorted 0.8%
[9] = tested on: CCR5 TALEN R (Artificial Sequence); details: as TALEN pair; T7E1, sorted RFP+GFP+ HEK293; unsorted 0.5%; 30 C culture
[10] = tested on: CCR5 TALEN L (Artificial Sequence); details: as TALEN pair; T7E1, sorted RFP+GFP+ HEK293; unsorted 0.5%; 30 C culture

AAACTGCAAAAG (double strand) [ZFN-224_R half-site]
activity [1]: 69 % mutation

AAGCAGGACCGA (double strand) [CMAH-ZFN_L half-site]
activity [2]: 12.1 % mutation

ATAGATGATGGG (double strand) [Z891_L half-site]
activity [3]: 8.7 % mutation

CGAGCACGCCGC (double strand) [Thumpd3_L half-site]
activity [4]: 46 % mutation

CGAGGATGGTGG (double strand) [CMAH-ZFN_R half-site]
activity [5]: 12.1 % mutation

GATGAGGATGAC (double strand) [ZFN-224_L half-site]
activity [6]: 69 % mutation

GGAGACCGGAAG (double strand) [Thumpd3_R half-site]
activity [7]: 46 % mutation

GTCGGGGAGAAG (double strand) [Z891_R half-site]
activity [8]: 8.7 % mutation

TAGTTTCTGAACTTCTCCCC (double strand) [TALEN_R half-site]
activity [9]: 4.3 % mutation

TGCATCAACCCCATCATC (double strand) [TALEN_L half-site]
activity [10]: 4.3 % mutation

Reference: patent US20140045176
